Normalised SPOT signal, Boehringer light units (BLU); mean over the file's lines of this peptide data for 38 molecules are collected here from PMC314469, “Protein Interaction Networks by Proteome Peptide Scanning” (PLoS Biology, 2004).

The chains are these.
T1: amphyphisin SH3 (AMPH_HUMAN), P49418
T1 chain: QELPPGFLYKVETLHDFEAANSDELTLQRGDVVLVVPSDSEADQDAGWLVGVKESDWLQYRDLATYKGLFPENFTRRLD

One assay addresses T1, amphyphisin SH3 (AMPH_HUMAN), P49418. Description: SPOT array.
In turn, FWQSPKRPPSPIKF [Q9H3T7 733-747] returned a normalised SPOT signal, Boehringer light units (BLU); mean over the file's lines of this peptide of 349.

With AILTLPRPVRASLP [Q9NQ75 154-167], the normalised SPOT signal, Boehringer light units (BLU); mean over the file's lines of this peptide is 402.

Regarding FNQALGRPEKIHNK [Q9UHP3 379-392], the normalised SPOT signal, Boehringer light units (BLU); mean over the file's lines of this peptide amounted to 92.

On to FTKTIKRPFGVKYN [P17752 389-402], for which the normalised SPOT signal, Boehringer light units (BLU); mean over the file's lines of this peptide is 22.4.

Take FVYNFIRPVKGKVS [Q9NUW7 10-23]: the normalised SPOT signal, Boehringer light units (BLU); mean over the file's lines of this peptide came to 190.

In turn, FSFSLPRPGRRGSR [O00538 575-588] gave a normalised SPOT signal, Boehringer light units (BLU); mean over the file's lines of this peptide of 1090.

Molecule FVLRPLRPSRRYST [Q14539 22-35] registered a normalised SPOT signal, Boehringer light units (BLU); mean over the file's lines of this peptide of 10100.

In turn, FRRVLLRPSRRVRS [P32745 324-337] yielded a normalised SPOT signal, Boehringer light units (BLU); mean over the file's lines of this peptide of 5790.

The molecule FPTVPTRPEKGYIW [Q99995 108-121] showed a normalised SPOT signal, Boehringer light units (BLU); mean over the file's lines of this peptide of 562.

As for FVTELRRPVAVRAK [Q9NW72 376-389], the normalised SPOT signal, Boehringer light units (BLU); mean over the file's lines of this peptide is 39.9.

FYRDLRRPFSAPDA [Q9HB63 378-391] had a normalised SPOT signal, Boehringer light units (BLU); mean over the file's lines of this peptide of 53.3.

With FRRLPTRPRKGGPE [Q9NXF8 292-305], the normalised SPOT signal, Boehringer light units (BLU); mean over the file's lines of this peptide is 340.

FNDSPYKPPVTRSN [Q9H7L2 189-203]: the normalised SPOT signal, Boehringer light units (BLU); mean over the file's lines of this peptide amounted to 64.1.

Consider FSHLLRRPPPEAPR [O76081 86-99], for which the normalised SPOT signal, Boehringer light units (BLU); mean over the file's lines of this peptide was 172.

FVTELRRPDAVRTK [Q9NQ90 781-794]: the normalised SPOT signal, Boehringer light units (BLU); mean over the file's lines of this peptide is 38.2.

On to AKDLLRRPFDLMLV [Q9BZW5 208-221], for which the normalised SPOT signal, Boehringer light units (BLU); mean over the file's lines of this peptide was 31.3.

In turn, FSHILKRPDRVLLI [P33076 484-497] gave a normalised SPOT signal, Boehringer light units (BLU); mean over the file's lines of this peptide of 879.

With FLTRLRRPIGKMTI [P28288 243-256], the normalised SPOT signal, Boehringer light units (BLU); mean over the file's lines of this peptide came out at 14.2.

For the molecule FNKYLSRPRRVEIA [O43364 164-177], the normalised SPOT signal, Boehringer light units (BLU); mean over the file's lines of this peptide amounted to 255.

FRGSFRRPDNLSLA [Q9Y4B7 288-301] had a normalised SPOT signal, Boehringer light units (BLU); mean over the file's lines of this peptide of 74.9.

GAARLGRPGRSSLP [P34925 3-16] came in with a normalised SPOT signal, Boehringer light units (BLU); mean over the file's lines of this peptide of 129.

As to FNRYLSRPRRVEMA [O43365 212-225], the normalised SPOT signal, Boehringer light units (BLU); mean over the file's lines of this peptide amounted to 336.

In turn, FNKYISRPRRVELA [P52945 167-180] gave a normalised SPOT signal, Boehringer light units (BLU); mean over the file's lines of this peptide of 242.

Molecule FNFDFRRPGPEPPR [O43559 400-413] had a normalised SPOT signal, Boehringer light units (BLU); mean over the file's lines of this peptide of 26.2.

For the molecule FVNEIRRPNGENYA [Q9UBW7 1125-1138], the normalised SPOT signal, Boehringer light units (BLU); mean over the file's lines of this peptide came to 23.8.

Molecule AKINLKRPPTAGSQ [Q9HA08 198-211] displayed a normalised SPOT signal, Boehringer light units (BLU); mean over the file's lines of this peptide of 0.

As to FYYRPPRPPKGASK [P46527 86-100], the normalised SPOT signal, Boehringer light units (BLU); mean over the file's lines of this peptide came to 3820.

For FMSSPRRPRSRGRQ [Q9HAP2 6-19], the normalised SPOT signal, Boehringer light units (BLU); mean over the file's lines of this peptide stood at 1130.

FNFDIRRPSLEHRQ [O43558 420-433] returned a normalised SPOT signal, Boehringer light units (BLU); mean over the file's lines of this peptide of 115.

In the case of FVSPPNRPFRSKND [Q07954 3693-3706], the normalised SPOT signal, Boehringer light units (BLU); mean over the file's lines of this peptide came to 3720.

In the case of FTGPPQKPPRLGAQ [Q14289 851-865], the normalised SPOT signal, Boehringer light units (BLU); mean over the file's lines of this peptide is 2710.

In the case of FSESLKRPWEDDPP [Q9Y384 121-134], the normalised SPOT signal, Boehringer light units (BLU); mean over the file's lines of this peptide was 58.5.

As for FTDLPKKPPPPEVT [Q96QH2 75-89], the normalised SPOT signal, Boehringer light units (BLU); mean over the file's lines of this peptide was 88.

As for FSSFLKRPKSQVSE [P11171 83-96], the normalised SPOT signal, Boehringer light units (BLU); mean over the file's lines of this peptide is 37.5.

FQEFLKRPDHKQDF [Q9C093 551-564] had a normalised SPOT signal, Boehringer light units (BLU); mean over the file's lines of this peptide of 32.9.

Regarding FVLVPLRPPSPARS [O75055 1510-1524], the normalised SPOT signal, Boehringer light units (BLU); mean over the file's lines of this peptide was determined as 1620.

In the case of FNKYLSRPKRFEVA [P50219 263-276], the normalised SPOT signal, Boehringer light units (BLU); mean over the file's lines of this peptide amounted to 193.

In the case of FSSVPSKPPMSLEP [Q96E32 219-233], the normalised SPOT signal, Boehringer light units (BLU); mean over the file's lines of this peptide is 30.1.

Another assay deals with endophilin SH3 (SH3G2_HUMAN), Q99962. The assay is described as follows: SPOT array.
FWQSPKRPPSPIKF [Q9H3T7 733-747] displayed a normalised SPOT signal, Boehringer light units (BLU); mean over the file's lines of this peptide of 12400.

AILTLPRPVRASLP [Q9NQ75 154-167]: the normalised SPOT signal, Boehringer light units (BLU); mean over the file's lines of this peptide was 1390.

The molecule FNQALGRPEKIHNK [Q9UHP3 379-392] had a normalised SPOT signal, Boehringer light units (BLU); mean over the file's lines of this peptide of 100.

With FTKTIKRPFGVKYN [P17752 389-402], the normalised SPOT signal, Boehringer light units (BLU); mean over the file's lines of this peptide was 61.9.

The molecule FVYNFIRPVKGKVS [Q9NUW7 10-23] yielded a normalised SPOT signal, Boehringer light units (BLU); mean over the file's lines of this peptide of 122.

For the molecule FSFSLPRPGRRGSR [O00538 575-588], the normalised SPOT signal, Boehringer light units (BLU); mean over the file's lines of this peptide amounted to 2080.

As for FVLRPLRPSRRYST [Q14539 22-35], the normalised SPOT signal, Boehringer light units (BLU); mean over the file's lines of this peptide was 18800.

As for FRRVLLRPSRRVRS [P32745 324-337], the normalised SPOT signal, Boehringer light units (BLU); mean over the file's lines of this peptide is 889.

The molecule FPTVPTRPEKGYIW [Q99995 108-121] showed a normalised SPOT signal, Boehringer light units (BLU); mean over the file's lines of this peptide of 425.

On to FVTELRRPVAVRAK [Q9NW72 376-389], for which the normalised SPOT signal, Boehringer light units (BLU); mean over the file's lines of this peptide worked out at 117.

In turn, FYRDLRRPFSAPDA [Q9HB63 378-391] showed a normalised SPOT signal, Boehringer light units (BLU); mean over the file's lines of this peptide of 175.

As for FRRLPTRPRKGGPE [Q9NXF8 292-305], the normalised SPOT signal, Boehringer light units (BLU); mean over the file's lines of this peptide was determined as 1540.

For the molecule FNDSPYKPPVTRSN [Q9H7L2 189-203], the normalised SPOT signal, Boehringer light units (BLU); mean over the file's lines of this peptide was 93.

For FSHLLRRPPPEAPR [O76081 86-99], the normalised SPOT signal, Boehringer light units (BLU); mean over the file's lines of this peptide came out at 5220.

In turn, FVTELRRPDAVRTK [Q9NQ90 781-794] returned a normalised SPOT signal, Boehringer light units (BLU); mean over the file's lines of this peptide of 43.1.

The molecule AKDLLRRPFDLMLV [Q9BZW5 208-221] displayed a normalised SPOT signal, Boehringer light units (BLU); mean over the file's lines of this peptide of 71.1.

On to FSHILKRPDRVLLI [P33076 484-497], for which the normalised SPOT signal, Boehringer light units (BLU); mean over the file's lines of this peptide was 292.

FLTRLRRPIGKMTI [P28288 243-256]: the normalised SPOT signal, Boehringer light units (BLU); mean over the file's lines of this peptide was found to be 382.

Consider FNKYLSRPRRVEIA [O43364 164-177], for which the normalised SPOT signal, Boehringer light units (BLU); mean over the file's lines of this peptide was found to be 156.

For the molecule FRGSFRRPDNLSLA [Q9Y4B7 288-301], the normalised SPOT signal, Boehringer light units (BLU); mean over the file's lines of this peptide stood at 109.

For GAARLGRPGRSSLP [P34925 3-16], the normalised SPOT signal, Boehringer light units (BLU); mean over the file's lines of this peptide was determined as 129.

For FNRYLSRPRRVEMA [O43365 212-225], the normalised SPOT signal, Boehringer light units (BLU); mean over the file's lines of this peptide was determined as 204.

As to FNKYISRPRRVELA [P52945 167-180], the normalised SPOT signal, Boehringer light units (BLU); mean over the file's lines of this peptide was 385.

Take FNFDFRRPGPEPPR [O43559 400-413]: the normalised SPOT signal, Boehringer light units (BLU); mean over the file's lines of this peptide came to 100.

For FVNEIRRPNGENYA [Q9UBW7 1125-1138], the normalised SPOT signal, Boehringer light units (BLU); mean over the file's lines of this peptide is 12.8.

AKINLKRPPTAGSQ [Q9HA08 198-211] came in with a normalised SPOT signal, Boehringer light units (BLU); mean over the file's lines of this peptide of 59.

Turning to FYYRPPRPPKGASK [P46527 86-100], the normalised SPOT signal, Boehringer light units (BLU); mean over the file's lines of this peptide worked out at 4600.

FMSSPRRPRSRGRQ [Q9HAP2 6-19] had a normalised SPOT signal, Boehringer light units (BLU); mean over the file's lines of this peptide of 1160.

Molecule FNFDIRRPSLEHRQ [O43558 420-433] returned a normalised SPOT signal, Boehringer light units (BLU); mean over the file's lines of this peptide of 3350.

FVSPPNRPFRSKND [Q07954 3693-3706] yielded a normalised SPOT signal, Boehringer light units (BLU); mean over the file's lines of this peptide of 224.

Consider FTGPPQKPPRLGAQ [Q14289 851-865], for which the normalised SPOT signal, Boehringer light units (BLU); mean over the file's lines of this peptide was 76.1.

Molecule FSESLKRPWEDDPP [Q9Y384 121-134] had a normalised SPOT signal, Boehringer light units (BLU); mean over the file's lines of this peptide of 35.3.

FTDLPKKPPPPEVT [Q96QH2 75-89] displayed a normalised SPOT signal, Boehringer light units (BLU); mean over the file's lines of this peptide of 59.2.

FSSFLKRPKSQVSE [P11171 83-96] registered a normalised SPOT signal, Boehringer light units (BLU); mean over the file's lines of this peptide of 51.3.

Molecule FQEFLKRPDHKQDF [Q9C093 551-564] came in with a normalised SPOT signal, Boehringer light units (BLU); mean over the file's lines of this peptide of 32.9.

Regarding FVLVPLRPPSPARS [O75055 1510-1524], the normalised SPOT signal, Boehringer light units (BLU); mean over the file's lines of this peptide is 17300.

For the molecule FNKYLSRPKRFEVA [P50219 263-276], the normalised SPOT signal, Boehringer light units (BLU); mean over the file's lines of this peptide was determined as 111.

In turn, FSSVPSKPPMSLEP [Q96E32 219-233] yielded a normalised SPOT signal, Boehringer light units (BLU); mean over the file's lines of this peptide of 35.9.
